Values belong to the binder of their own block, whether it stands above or below them.
Assays:
Experiment in all cases: SPR
[1] = molecular target: T1, mouse CD137-Fc chimeric protein (mouse, UniProt P20334 24-187, limits assumed)
T1 sequence (looked up): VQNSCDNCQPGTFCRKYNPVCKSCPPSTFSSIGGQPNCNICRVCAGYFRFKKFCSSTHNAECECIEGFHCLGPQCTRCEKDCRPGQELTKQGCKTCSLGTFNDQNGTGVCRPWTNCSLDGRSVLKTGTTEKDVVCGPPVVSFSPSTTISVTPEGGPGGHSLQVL
Protocol: (§1) Affinity to PDL1 of the different species was determined by SPR measurements using a Biacore T200 device (GE Healthcare). An antibody specific for the Fc region of human IgGs was immobilized on a sensor chip (CM5 sensor chip, GE Healthcare) by amine-coupling. For all formats, with the exception of the Fc containing Morrison formats, PDL1-Fc chimeric protein from different species were captured by the immobilized antibody.
(§2) Three-fold serial dilutions of the molecules specific for PDL1 (0.12-90 nM) were injected into the flow cells for three minutes and dissociation was monitored for 10 minutes. After each injection cycle, surfaces were regenerated with one injection of a 3 M MgCl₂ solution. The apparent dissociation (kd) and association (kₐ) rate constants and the apparent dissociation equilibrium constant (KD) were calculated using one-to-one Langmuir binding model. Affinity to CD137 of the different species was determined using the identical setup as for PDL1 with the exception that CD137-Fc chimeric protein from different species were captured by the immobilized antibody.

Fc tagged human PDL1 = molecular target: T2, Fc tagged human PDL1 (human, UniProt Q9NZQ7 19-239)
T2 construct: Bought (Sino Biological, cat. 10084-H02H); captured on the SPR chip; also called PDL1-Fc chimeric protein
Protocol: as §1, §2

Fc tagged human CD137 = molecular target: T3, Fc tagged human CD137 (human, UniProt Q07011 24-186)
T3 construct: also called CD137-Fc chimeric protein
Protocol: as §1, §2

Kd [1]: 420 nM | koff (Fc tagged human PDL1): 7.6e-05 s⁻¹ | kon (Fc tagged human PDL1): 2.8e+06 M⁻¹ s⁻¹ | Kd (Fc tagged human CD137): 3.4 nM | koff (Fc tagged human CD137): 0.00084 s⁻¹ | kon (Fc tagged human CD137): 250000 M⁻¹ s⁻¹
B1: PRO1134 (bispecific antibody)
chain: DIQMTQSPSSLSASVGDAVTITCQASQSINDYLAWYQQKPGKSPKLLIYKASTLASGVPSRFSGSGSGTDFTLTISSLQPEDFATYYCQQGYIITDIDNVFGTGTKVTVLGGGGGSQVQLQESGPGLVKPSETLSLTCKVSGFSFSNSYWICWIRQPPGKGLEWIGCTFVGSSDSTYYANWAKGRVTISVDSSKNQFSLKLSSVTAADTAVYYCARHPSDAVYGYANNLWGQGTLVTVSSGGGGSGGGGSGGGGSGGGGSIQMTQSPSSLSASVGDRVTITCQASQSINNVLAWYQQKPGKAPKLLIYRASTLASGVPSRFSGSGSGTDFTLTISSLQPEDFATYYCQSSYGNYGDFGTGTKVTVLGGGGGSEVQLVESGGGLVQPGGSLRLSCAASGFSFSSGYDMCWVRQAPGKGLEWVGCVVAGSVDITYYASWAKGRFTISRDNSKNTVYLQMNSLRAEDTATYYCARKDAYSDAFNLWGPGTLVTVSS
notes: scDb; also called 38-02-A04 sc01 scDb-i/33-03-G02 sc07 GL VH3 scDb-o

Kd [1]: 510 nM | koff [1]: 0.27 s⁻¹ | Kd (Fc tagged human PDL1): 0.067 nM | koff (Fc tagged human PDL1): 0.00011 s⁻¹ | kon (Fc tagged human PDL1): 1.7e+06 M⁻¹ s⁻¹ | Kd (Fc tagged human CD137): 3.7 nM | kon (Fc tagged human CD137): 200000 M⁻¹ s⁻¹
B2: PRO1125 (bispecific antibody)
chain: DIQMTQSPSSLSASVGDRVTITCQASQSINDYLAWYQQKPGKSPKLLIYKASTLASGVPSRFSGSGSGTDFTLTISSLQPEDFATYYCQQGYIITDIDNVFGTGTKVTVLGGGGGSQVQLQESGPGLVKPSETLSLTCKVSGFSFSNSYWICWIRQPPGKGLEWIGCTFVGSSDSTYYANWAKGRVTISVDSSKNQFSLKLSSVTAADTAVYYCARHPSDAVYGYANNLWGQGTLVTVSSGGGGSGGGGSGGGGSGGGGSIQMTQSPSSLSASVGDRVTITCQASQSINNVLAWYQQKPGKAPKLLIYRASTLASGVPSRFSGSGSGTDFTLTISSLQPEDFATYYCQSSYGNYGDFGTGTKVTVLGGGGGSQVQLQESGPGLVKPSETLSLTCKVSGFSFSSGYDMCWVRQPPGKGLEWIACVVAGSVDITYYASWAKGRVTISVDSSKNQFSLKLSSVTAADTAVYFCARKDAYSDAFNLWGQGTLVTVSS
notes: scDb; also called 38-02-A04 sc01 scDb-i/33-03-G02 sc02 IF scDb-o

Source: US20230192897A1 (NUMAB THERAPEUTICS, published 2023)
